Substitutions are numbered along the chain they refer to.
What was measured:
[1] = molecular target: Cre-B2-C2#4
[2] = molecular target: T1, Cre-B2
T1 chain: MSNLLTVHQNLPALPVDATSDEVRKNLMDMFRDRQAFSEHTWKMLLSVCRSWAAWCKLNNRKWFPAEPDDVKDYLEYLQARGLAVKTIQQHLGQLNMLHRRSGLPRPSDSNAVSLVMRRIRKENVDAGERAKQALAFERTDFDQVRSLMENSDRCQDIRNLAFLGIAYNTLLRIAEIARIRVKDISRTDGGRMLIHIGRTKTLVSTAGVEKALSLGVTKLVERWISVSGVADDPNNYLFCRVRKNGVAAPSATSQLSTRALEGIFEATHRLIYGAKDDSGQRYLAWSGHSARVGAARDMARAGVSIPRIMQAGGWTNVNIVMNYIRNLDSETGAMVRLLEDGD

[3] = molecular target: Cre-A3 (P1 Bacteriophage) (UniProt P06956); assay: cell-based or functional assay
[4] = molecular target: Cre-B2 (P1 Bacteriophage) (UniProt P06956); assay: cell-based or functional assay
[5] = molecular target: Cre-B3 (P1 Bacteriophage) (UniProt P06956); assay: cell-based or functional assay
[6] = molecular target: T2, Cre-B1
T2 chain: T1 chain with R308E

[7] = molecular target: Cre-A1 (P1 Bacteriophage) (UniProt P06956); assay: cell-based or functional assay
[8] = molecular target: Cre-B1 (P1 Bacteriophage) (UniProt P06956); assay: cell-based or functional assay

B1: Cre-A3 (protein)
chain: MSNLLTVHQNLPALPVDATSDEVRRNLMRMFELRRAFSEHTWKMLLSVCRSWAAWCKLNNRKWFPAEPEDVRDYLLYLQARGLAVKTIQQHLGQLNMLHRRSGLPRPSDSNAVSLVMRRIRKLNVDAGERAKQALAFERTDFDQVRSLMENSDRCQDIRNLAFLGIAYNTLLRIAEIARIRVKDISRTDGGRMLIHIGRTKTLVSTAGVEKALSLGVTKLVERWISVSGVADDPNNYLFCRVRKNGVAAPSATSQLSTRALEGIFEATHRLIYGAKDDSGQRYLAWSGHSARVGAARDMARAGVSIPEIMQAGGWTNVNIVMNYIRNLDSETGAMVELLEDGD
- recombinase activity in vitro (loxP excision, gel): This mutation successfully disrupted formation of Cre-A2 homotetramers
- recombinase activity in vitro on six loxP/M7 hybrid substrates (gel) [1]: In vitro assays confirmed that the heterotetrameric Cre is more specific in recombining different arrangement of loxP/M7 sites
- recombinase activity in vitro (loxP excision, gel) [2]: preserving activity in the Cre-A3+Cre-B2 heterotetramer
- RFP positive cells of 7000 sorted, Ai14 mouse ES reporter cells, promoter hbb + cmv, replicate 1 [3]: 0 cells
- RFP positive cells of 7000 sorted, Ai14 mouse ES reporter cells, promoter hbb + cmv, replicate 2 [3]: 1 cells
- RFP positive cells of 7000 sorted, Ai14 mouse ES reporter cells, promoter hbb + cmv, replicate 3 [3]: 1 cells
- RFP positive cells of 7000 sorted, Ai14 mouse ES reporter cells, promoter hbb + sp1, replicate 1 [3]: 1 cells
- RFP positive cells of 7000 sorted, Ai14 mouse ES reporter cells, promoter hbb + sp1, replicate 2 [3]: 0 cells
- RFP positive cells of 7000 sorted, Ai14 mouse ES reporter cells, promoter hbb + sp1, replicate 3 [3]: 0 cells
- RFP positive cells of 7000 sorted, Ai14 mouse ES reporter cells, promoter hbb, replicate 1 [3]: 0 cells
- RFP positive cells of 7000 sorted, Ai14 mouse ES reporter cells, promoter hbb, replicate 2 [3]: 0 cells
- RFP positive cells of 7000 sorted, Ai14 mouse ES reporter cells, promoter hbb, replicate 3 [3]: 1 cells
- RFP positive cells of 7000 sorted, Ai14 mouse ES reporter cells, promoter hbb + cmv, replicate 1 [4]: 1600 cells
- RFP positive cells of 7000 sorted, Ai14 mouse ES reporter cells, promoter hbb + cmv, replicate 2 [4]: 1650 cells
- RFP positive cells of 7000 sorted, Ai14 mouse ES reporter cells, promoter hbb + cmv, replicate 3 [4]: 1700 cells
- RFP positive cells of 7000 sorted, Ai14 mouse ES reporter cells, promoter hbb + sp1, replicate 1 [4]: 1500 cells
- RFP positive cells of 7000 sorted, Ai14 mouse ES reporter cells, promoter hbb + sp1, replicate 2 [4]: 1530 cells
- RFP positive cells of 7000 sorted, Ai14 mouse ES reporter cells, promoter hbb + sp1, replicate 3 [4]: 1610 cells
- RFP positive cells of 7000 sorted, Ai14 mouse ES reporter cells, promoter hbb, replicate 1 [4]: 256 cells
- RFP positive cells of 7000 sorted, Ai14 mouse ES reporter cells, promoter hbb, replicate 2 [4]: 233 cells
- RFP positive cells of 7000 sorted, Ai14 mouse ES reporter cells, promoter hbb, replicate 3 [4]: 284 cells
- recombinase activity in mouse ES reporter cells, relative to wild type Cre (% of wild type Cre activity) [4]: 40
- RFP positive cells of 7000 sorted, Ai14 mouse ES reporter cells, promoter hbb + cmv, replicate 1 [5]: 1 cells
- RFP positive cells of 7000 sorted, Ai14 mouse ES reporter cells, promoter hbb + cmv, replicate 2 [5]: 2 cells
- RFP positive cells of 7000 sorted, Ai14 mouse ES reporter cells, promoter hbb + cmv, replicate 3 [5]: 1 cells
- RFP positive cells of 7000 sorted, Ai14 mouse ES reporter cells, promoter hbb + sp1, replicate 1 [5]: 1 cells
- RFP positive cells of 7000 sorted, Ai14 mouse ES reporter cells, promoter hbb + sp1, replicate 2 [5]: 1 cells
- RFP positive cells of 7000 sorted, Ai14 mouse ES reporter cells, promoter hbb + sp1, replicate 3 [5]: 2 cells
- RFP positive cells of 7000 sorted, Ai14 mouse ES reporter cells, promoter hbb, replicate 1 [5]: 0 cells
- RFP positive cells of 7000 sorted, Ai14 mouse ES reporter cells, promoter hbb, replicate 2 [5]: 1 cells
- RFP positive cells of 7000 sorted, Ai14 mouse ES reporter cells, promoter hbb, replicate 3 [5]: 0 cells

B2: Cre-A1 (protein)
chain: B1 chain with L123E, E337R
- recombinase activity in vitro (loxP excision, gel): one of the mutants (Cre-A1) was active individually
- recombinase activity in vitro (loxP excision, gel) [6]: the combined pair of redesigned mutants was active (Cre-A1+Cre-B1
- RFP positive cells of 7000 sorted, Ai14 mouse ES reporter cells, promoter hbb + cmv, replicate 1 [7]: 3850 cells
- RFP positive cells of 7000 sorted, Ai14 mouse ES reporter cells, promoter hbb + cmv, replicate 2 [7]: 3530 cells
- RFP positive cells of 7000 sorted, Ai14 mouse ES reporter cells, promoter hbb + cmv, replicate 3 [7]: 3690 cells
- RFP positive cells of 7000 sorted, Ai14 mouse ES reporter cells, promoter hbb + sp1, replicate 1 [7]: 3750 cells
- RFP positive cells of 7000 sorted, Ai14 mouse ES reporter cells, promoter hbb + sp1, replicate 2 [7]: 3420 cells
- RFP positive cells of 7000 sorted, Ai14 mouse ES reporter cells, promoter hbb + sp1, replicate 3 [7]: 3500 cells
- RFP positive cells of 7000 sorted, Ai14 mouse ES reporter cells, promoter hbb, replicate 1 [7]: 414 cells
- RFP positive cells of 7000 sorted, Ai14 mouse ES reporter cells, promoter hbb, replicate 2 [7]: 378 cells
- RFP positive cells of 7000 sorted, Ai14 mouse ES reporter cells, promoter hbb, replicate 3 [7]: 391 cells
- RFP positive cells of 7000 sorted, Ai14 mouse ES reporter cells, promoter hbb + cmv, replicate 1 [8]: 5870 cells
- RFP positive cells of 7000 sorted, Ai14 mouse ES reporter cells, promoter hbb + cmv, replicate 2 [8]: 6030 cells
- RFP positive cells of 7000 sorted, Ai14 mouse ES reporter cells, promoter hbb + cmv, replicate 3 [8]: 6360 cells
- RFP positive cells of 7000 sorted, Ai14 mouse ES reporter cells, promoter hbb + sp1, replicate 1 [8]: 5700 cells
- RFP positive cells of 7000 sorted, Ai14 mouse ES reporter cells, promoter hbb + sp1, replicate 2 [8]: 6120 cells
- RFP positive cells of 7000 sorted, Ai14 mouse ES reporter cells, promoter hbb + sp1, replicate 3 [8]: 5990 cells
- RFP positive cells of 7000 sorted, Ai14 mouse ES reporter cells, promoter hbb, replicate 1 [8]: 1120 cells
- RFP positive cells of 7000 sorted, Ai14 mouse ES reporter cells, promoter hbb, replicate 2 [8]: 1210 cells
- RFP positive cells of 7000 sorted, Ai14 mouse ES reporter cells, promoter hbb, replicate 3 [8]: 1320 cells

From US20170058297A1
